Measurements published in patent publication US20240018252A1 (Pfizer, published 2024).

T1: human BCMA (human, UniProt Q02223 1-54)
T1 construct: also called huBCMA; hBCMA
T1 sequence: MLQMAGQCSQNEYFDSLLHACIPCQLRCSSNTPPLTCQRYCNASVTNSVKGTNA


Target: T1, human BCMA
Experiment: SPR, immobilised IgG, 37° C

Binder	T½ [min]
L3.PY/L1.AH/H3.TAQ (antibody, V domains shown, IgG in the assay) VH: EVQLLESGGGLVQPGGSLRLSCAASGFTFGSYAMTWVRQAPGKGLEWVSAISGSGGNTFYADSVKGRFTISRDNSKNTLYLQMNSLRAEDTAVYYCTRVSPIAAQMDYWGQGTLVTVSS VL: EIVLTQSPGTLSLSPGERATLSCRASQSVSAHYLAWYQQKPGQAPRLLIYGASSRATGIPDRFSGSGSGTDFTLTISRLEPEDFAVYYCQHYPYPPSFTFGQGTKVEIK	9.68
L3.PY/L1.FF/H3.YA (antibody, V domains shown, IgG in the assay) VH: EVQLLESGGGLVQPGGSLRLSCAASGFTFGSYAMTWVRQAPGKGLEWVSAISGSGGNTFYADSVKGRFTISRDNSKNTLYLQMNSLRAEDTAVYYCARVSPIYAGMDYWGQGTLVTVSS VL: EIVLTQSPGTLSLSPGERATLSCRASQSVSSFFLAWYQQKPGQAPRLLIYGASSRATGIPDRFSGSGSGTDFTLTISRLEPEDFAVYYCQHYPYPPSFTFGQGTKVEIK	6.41
L3.PY/L1.FF/H3.AQ (antibody, V domains shown, IgG in the assay) VH: EVQLLESGGGLVQPGGSLRLSCAASGFTFGSYAMTWVRQAPGKGLEWVSAISGSGGNTFYADSVKGRFTISRDNSKNTLYLQMNSLRAEDTAVYYCARVSPIAAQMDYWGQGTLVTVSS VL: EIVLTQSPGTLSLSPGERATLSCRASQSVSSFFLAWYQQKPGQAPRLLIYGASSRATGIPDRFSGSGSGTDFTLTISRLEPEDFAVYYCQHYPYPPSFTFGQGTKVEIK	7.51
L3.PY/L1.PH/H3.TAQ (antibody, V domains shown, IgG in the assay) VH: EVQLLESGGGLVQPGGSLRLSCAASGFTFGSYAMTWVRQAPGKGLEWVSAISGSGGNTFYADSVKGRFTISRDNSKNTLYLQMNSLRAEDTAVYYCTRVSPIAAQMDYWGQGTLVTVSS VL: EIVLTQSPGTLSLSPGERATLSCRASQSVSPHYLAWYQQKPGQAPRLLIYGASSRATGIPDRFSGSGSGTDFTLTISRLEPEDFAVYYCQHYPYPPSFTFGQGTKVEIK	5.43
L3.PY/L1.PH/H3.AQ (antibody, V domains shown, IgG in the assay) VH: EVQLLESGGGLVQPGGSLRLSCAASGFTFGSYAMTWVRQAPGKGLEWVSAISGSGGNTFYADSVKGRFTISRDNSKNTLYLQMNSLRAEDTAVYYCARVSPIAAQMDYWGQGTLVTVSS VL: EIVLTQSPGTLSLSPGERATLSCRASQSVSPHYLAWYQQKPGQAPRLLIYGASSRATGIPDRFSGSGSGTDFTLTISRLEPEDFAVYYCQHYPYPPSFTFGQGTKVEIK	7.27
L3.PY/L3.KF/H2.DY (antibody, V domains shown, IgG in the assay) VH: EVQLLESGGGLVQPGGSLRLSCAASGFTFGSYAMTWVRQAPGKGLEWVSAIDYSGGNTFYADSVKGRFTISRDNSKNTLYLQMNSLRAEDTAVYYCARVSPIASGMDYWGQGTLVTVSS VL: EIVLTQSPGTLSLSPGERATLSCRASQSVSSSYLAWYQQKPGQAPRLLIYGASSRATGIPDRFSGSGSGTDFTLTISRLEPEDFAVYYCKFYPYPPSFTFGQGTKVEIK	6.35
L3.PY/L1.FF/H2.QL (antibody, V domains shown, IgG in the assay) VH: EVQLLESGGGLVQPGGSLRLSCAASGFTFGSYAMTWVRQAPGKGLEWVSAISGSGGNTFYADQLKGRFTISRDNSKNTLYLQMNSLRAEDTAVYYCARVSPIASGMDYWGQGTLVTVSS VL: EIVLTQSPGTLSLSPGERATLSCRASQSVSSFFLAWYQQKPGQAPRLLIYGASSRATGIPDRFSGSGSGTDFTLTISRLEPEDFAVYYCQHYPYPPSFTFGQGTKVEIK	8.28
L3.PY/L3.KF/H2.QL (antibody, V domains shown, IgG in the assay) VH: EVQLLESGGGLVQPGGSLRLSCAASGFTFGSYAMTWVRQAPGKGLEWVSAISGSGGNTFYADQLKGRFTISRDNSKNTLYLQMNSLRAEDTAVYYCARVSPIASGMDYWGQGTLVTVSS VL: EIVLTQSPGTLSLSPGERATLSCRASQSVSSSYLAWYQQKPGQAPRLLIYGASSRATGIPDRFSGSGSGTDFTLTISRLEPEDFAVYYCKFYPYPPSFTFGQGTKVEIK	9.26
L3.PY/L1.FF/H3.AE (antibody, V domains shown, IgG in the assay) VH: EVQLLESGGGLVQPGGSLRLSCAASGFTFGSYAMTWVRQAPGKGLEWVSAISGSGGNTFYADSVKGRFTISRDNSKNTLYLQMNSLRAEDTAVYYCARVSPIAAEMDYWGQGTLVTVSS VL: EIVLTQSPGTLSLSPGERATLSCRASQSVSSFFLAWYQQKPGQAPRLLIYGASSRATGIPDRFSGSGSGTDFTLTISRLEPEDFAVYYCQHYPYPPSFTFGQGTKVEIK	4.39
L3.PY/L1.PH/H3.AE (antibody, V domains shown, IgG in the assay) VH: EVQLLESGGGLVQPGGSLRLSCAASGFTFGSYAMTWVRQAPGKGLEWVSAISGSGGNTFYADSVKGRFTISRDNSKNTLYLQMNSLRAEDTAVYYCARVSPIAAEMDYWGQGTLVTVSS VL: EIVLTQSPGTLSLSPGERATLSCRASQSVSPHYLAWYQQKPGQAPRLLIYGASSRATGIPDRFSGSGSGTDFTLTISRLEPEDFAVYYCQHYPYPPSFTFGQGTKVEIK	8.61
L3.PY/L1.FF/H3.TAQ (antibody, V domains shown, IgG in the assay) VH: EVQLLESGGGLVQPGGSLRLSCAASGFTFGSYAMTWVRQAPGKGLEWVSAISGSGGNTFYADSVKGRFTISRDNSKNTLYLQMNSLRAEDTAVYYCTRVSPIAAQMDYWGQGTLVTVSS VL: EIVLTQSPGTLSLSPGERATLSCRASQSVSSFFLAWYQQKPGQAPRLLIYGASSRATGIPDRFSGSGSGTDFTLTISRLEPEDFAVYYCQHYPYPPSFTFGQGTKVEIK	6.12
L3.PY/L3.KF/H3.AE (antibody, V domains shown, IgG in the assay) VH: EVQLLESGGGLVQPGGSLRLSCAASGFTFGSYAMTWVRQAPGKGLEWVSAISGSGGNTFYADSVKGRFTISRDNSKNTLYLQMNSLRAEDTAVYYCARVSPIAAEMDYWGQGTLVTVSS VL: EIVLTQSPGTLSLSPGERATLSCRASQSVSSSYLAWYQQKPGQAPRLLIYGASSRATGIPDRFSGSGSGTDFTLTISRLEPEDFAVYYCKFYPYPPSFTFGQGTKVEIK	7.44
L3.PY/L3.KF/H2.YQ (antibody, V domains shown, IgG in the assay) VH: EVQLLESGGGLVQPGGSLRLSCAASGFTFGSYAMTWVRQAPGKGLEWVSAISYQGGNTFYADSVKGRFTISRDNSKNTLYLQMNSLRAEDTAVYYCARVSPIASGMDYWGQGTLVTVSS VL: EIVLTQSPGTLSLSPGERATLSCRASQSVSSSYLAWYQQKPGQAPRLLIYGASSRATGIPDRFSGSGSGTDFTLTISRLEPEDFAVYYCKFYPYPPSFTFGQGTKVEIK	5.18
L3.PY/L1.FF/H2.HA (antibody, V domains shown, IgG in the assay) VH: EVQLLESGGGLVQPGGSLRLSCAASGFTFGSYAMTWVRQAPGKGLEWVSAISHAGGNTFYADSVKGRFTISRDNSKNTLYLQMNSLRAEDTAVYYCARVSPIASGMDYWGQGTLVTVSS VL: EIVLTQSPGTLSLSPGERATLSCRASQSVSSFFLAWYQQKPGQAPRLLIYGASSRATGIPDRFSGSGSGTDFTLTISRLEPEDFAVYYCQHYPYPPSFTFGQGTKVEIK	5.29
L3.PY/L1.FF/H2.DY (antibody, V domains shown, IgG in the assay) VH: EVQLLESGGGLVQPGGSLRLSCAASGFTFGSYAMTWVRQAPGKGLEWVSAIDYSGGNTFYADSVKGRFTISRDNSKNTLYLQMNSLRAEDTAVYYCARVSPIASGMDYWGQGTLVTVSS VL: EIVLTQSPGTLSLSPGERATLSCRASQSVSSFFLAWYQQKPGQAPRLLIYGASSRATGIPDRFSGSGSGTDFTLTISRLEPEDFAVYYCQHYPYPPSFTFGQGTKVEIK	4.27
L3.PY/L1.PH/H2.QR (antibody, V domains shown, IgG in the assay) VH: EVQLLESGGGLVQPGGSLRLSCAASGFTFGSYAMTWVRQAPGKGLEWVSAISGSGGNTFYADQRKGRFTISRDNSKNTLYLQMNSLRAEDTAVYYCARVSPIASGMDYWGQGTLVTVSS VL: EIVLTQSPGTLSLSPGERATLSCRASQSVSPHYLAWYQQKPGQAPRLLIYGASSRATGIPDRFSGSGSGTDFTLTISRLEPEDFAVYYCQHYPYPPSFTFGQGTKVEIK	4.89
L3.PY/L1.PH/H2.HA (antibody, V domains shown, IgG in the assay) VH: EVQLLESGGGLVQPGGSLRLSCAASGFTFGSYAMTWVRQAPGKGLEWVSAISHAGGNTFYADSVKGRFTISRDNSKNTLYLQMNSLRAEDTAVYYCARVSPIASGMDYWGQGTLVTVSS VL: EIVLTQSPGTLSLSPGERATLSCRASQSVSPHYLAWYQQKPGQAPRLLIYGASSRATGIPDRFSGSGSGTDFTLTISRLEPEDFAVYYCQHYPYPPSFTFGQGTKVEIK	9.99
L3.PY/L1.FF/H2.LT (antibody, V domains shown, IgG in the assay) VH: EVQLLESGGGLVQPGGSLRLSCAASGFTFGSYAMTWVRQAPGKGLEWVSAISLTGGNTFYADSVKGRFTISRDNSKNTLYLQMNSLRAEDTAVYYCARVSPIASGMDYWGQGTLVTVSS VL: EIVLTQSPGTLSLSPGERATLSCRASQSVSSFFLAWYQQKPGQAPRLLIYGASSRATGIPDRFSGSGSGTDFTLTISRLEPEDFAVYYCQHYPYPPSFTFGQGTKVEIK	6.92
L3.PY/L1.FF/H2.YQ (antibody, V domains shown, IgG in the assay) VH: EVQLLESGGGLVQPGGSLRLSCAASGFTFGSYAMTWVRQAPGKGLEWVSAISYQGGNTFYADSVKGRFTISRDNSKNTLYLQMNSLRAEDTAVYYCARVSPIASGMDYWGQGTLVTVSS VL: EIVLTQSPGTLSLSPGERATLSCRASQSVSSFFLAWYQQKPGQAPRLLIYGASSRATGIPDRFSGSGSGTDFTLTISRLEPEDFAVYYCQHYPYPPSFTFGQGTKVEIK	7.61
L3.PY/L1.FF/H2.QR (antibody, V domains shown, IgG in the assay) VH: EVQLLESGGGLVQPGGSLRLSCAASGFTFGSYAMTWVRQAPGKGLEWVSAISGSGGNTFYADQRKGRFTISRDNSKNTLYLQMNSLRAEDTAVYYCARVSPIASGMDYWGQGTLVTVSS VL: EIVLTQSPGTLSLSPGERATLSCRASQSVSSFFLAWYQQKPGQAPRLLIYGASSRATGIPDRFSGSGSGTDFTLTISRLEPEDFAVYYCQHYPYPPSFTFGQGTKVEIK	6.54
L3.PY/L3.KF/H2.LT (antibody, V domains shown, IgG in the assay) VH: EVQLLESGGGLVQPGGSLRLSCAASGFTFGSYAMTWVRQAPGKGLEWVSAISLTGGNTFYADSVKGRFTISRDNSKNTLYLQMNSLRAEDTAVYYCARVSPIASGMDYWGQGTLVTVSS VL: EIVLTQSPGTLSLSPGERATLSCRASQSVSSSYLAWYQQKPGQAPRLLIYGASSRATGIPDRFSGSGSGTDFTLTISRLEPEDFAVYYCKFYPYPPSFTFGQGTKVEIK	6.05
